Test results published in patent US20120114557A1.
Bridge positions count the residues as written; N and C are the ends. Square brackets hold non-standard residues; d marks the D form. Ends that are not written are not given here. NMeA = CN[C@@H](C)C(=O)O; Sar = CNCC(=O)O

Tests used:
[1] = target: human collagen type I (human) (UniProt P02452); assay: dried collagen assay, 5 uM peptide
[2] = target: rat collagen type I (rat) (UniProt P02454); assay: dried collagen assay, 5 uM peptide
Sequence of rat collagen type I (rat) (P02454 152-1207, chain 1 of 2): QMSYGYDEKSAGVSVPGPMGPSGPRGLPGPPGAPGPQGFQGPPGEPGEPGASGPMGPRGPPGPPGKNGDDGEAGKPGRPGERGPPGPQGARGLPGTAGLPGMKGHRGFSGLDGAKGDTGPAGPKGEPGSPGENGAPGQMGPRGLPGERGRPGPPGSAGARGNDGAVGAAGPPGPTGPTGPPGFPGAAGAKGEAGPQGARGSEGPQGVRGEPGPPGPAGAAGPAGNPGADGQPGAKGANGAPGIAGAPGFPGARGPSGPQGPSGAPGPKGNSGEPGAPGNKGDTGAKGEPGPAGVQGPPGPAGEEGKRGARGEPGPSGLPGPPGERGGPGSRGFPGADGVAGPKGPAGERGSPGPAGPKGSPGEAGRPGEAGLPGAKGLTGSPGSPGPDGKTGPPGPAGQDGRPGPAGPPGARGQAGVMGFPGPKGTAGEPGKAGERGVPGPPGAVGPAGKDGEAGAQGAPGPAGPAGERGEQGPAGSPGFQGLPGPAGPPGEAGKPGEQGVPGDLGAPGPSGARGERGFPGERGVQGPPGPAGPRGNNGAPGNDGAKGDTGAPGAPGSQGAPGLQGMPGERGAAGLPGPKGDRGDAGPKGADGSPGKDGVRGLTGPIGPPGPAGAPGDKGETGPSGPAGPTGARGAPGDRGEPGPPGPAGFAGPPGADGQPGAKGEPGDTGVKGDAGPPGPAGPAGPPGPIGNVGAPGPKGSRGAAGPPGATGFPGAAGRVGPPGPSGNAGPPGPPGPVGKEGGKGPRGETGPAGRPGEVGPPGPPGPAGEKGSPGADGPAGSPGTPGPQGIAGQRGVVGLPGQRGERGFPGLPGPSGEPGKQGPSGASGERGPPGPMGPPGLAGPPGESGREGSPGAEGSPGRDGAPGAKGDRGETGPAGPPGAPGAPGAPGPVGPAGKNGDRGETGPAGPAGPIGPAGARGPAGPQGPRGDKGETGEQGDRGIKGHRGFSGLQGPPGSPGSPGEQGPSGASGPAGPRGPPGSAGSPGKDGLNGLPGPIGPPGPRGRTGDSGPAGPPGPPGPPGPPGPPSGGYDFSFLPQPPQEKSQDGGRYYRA
Sequence of rat collagen type I (rat) (P02466 86-1125, chain 2 of 2, further chain): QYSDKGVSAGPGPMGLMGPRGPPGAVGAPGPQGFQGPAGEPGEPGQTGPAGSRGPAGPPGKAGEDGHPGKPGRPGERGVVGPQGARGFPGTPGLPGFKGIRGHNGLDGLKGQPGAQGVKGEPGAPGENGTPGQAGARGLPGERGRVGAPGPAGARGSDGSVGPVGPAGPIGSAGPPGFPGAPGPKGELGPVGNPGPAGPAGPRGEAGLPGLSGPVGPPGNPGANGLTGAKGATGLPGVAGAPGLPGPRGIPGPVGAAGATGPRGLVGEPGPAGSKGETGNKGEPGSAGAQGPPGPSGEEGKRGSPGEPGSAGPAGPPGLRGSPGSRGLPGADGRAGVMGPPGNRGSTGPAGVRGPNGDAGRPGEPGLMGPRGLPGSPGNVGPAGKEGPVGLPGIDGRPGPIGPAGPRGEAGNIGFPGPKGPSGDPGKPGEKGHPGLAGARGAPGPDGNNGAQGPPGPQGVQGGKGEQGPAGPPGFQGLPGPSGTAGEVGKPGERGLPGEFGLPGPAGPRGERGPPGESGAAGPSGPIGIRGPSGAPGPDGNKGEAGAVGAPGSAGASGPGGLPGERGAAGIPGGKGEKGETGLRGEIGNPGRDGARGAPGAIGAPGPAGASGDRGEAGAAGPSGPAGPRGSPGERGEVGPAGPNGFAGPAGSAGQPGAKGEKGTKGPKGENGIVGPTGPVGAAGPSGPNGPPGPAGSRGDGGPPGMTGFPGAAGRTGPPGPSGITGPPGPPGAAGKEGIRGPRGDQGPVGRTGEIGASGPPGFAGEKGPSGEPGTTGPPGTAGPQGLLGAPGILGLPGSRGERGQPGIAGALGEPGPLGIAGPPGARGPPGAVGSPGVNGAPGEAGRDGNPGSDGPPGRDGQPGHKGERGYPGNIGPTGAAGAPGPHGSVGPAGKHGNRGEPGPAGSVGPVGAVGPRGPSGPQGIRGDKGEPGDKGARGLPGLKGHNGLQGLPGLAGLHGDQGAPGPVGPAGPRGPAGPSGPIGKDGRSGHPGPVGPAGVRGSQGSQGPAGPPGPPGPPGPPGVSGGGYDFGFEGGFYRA

Sequence of human collagen type I (human) (P02452 162-1218 limits assumed, chain 1 of 2): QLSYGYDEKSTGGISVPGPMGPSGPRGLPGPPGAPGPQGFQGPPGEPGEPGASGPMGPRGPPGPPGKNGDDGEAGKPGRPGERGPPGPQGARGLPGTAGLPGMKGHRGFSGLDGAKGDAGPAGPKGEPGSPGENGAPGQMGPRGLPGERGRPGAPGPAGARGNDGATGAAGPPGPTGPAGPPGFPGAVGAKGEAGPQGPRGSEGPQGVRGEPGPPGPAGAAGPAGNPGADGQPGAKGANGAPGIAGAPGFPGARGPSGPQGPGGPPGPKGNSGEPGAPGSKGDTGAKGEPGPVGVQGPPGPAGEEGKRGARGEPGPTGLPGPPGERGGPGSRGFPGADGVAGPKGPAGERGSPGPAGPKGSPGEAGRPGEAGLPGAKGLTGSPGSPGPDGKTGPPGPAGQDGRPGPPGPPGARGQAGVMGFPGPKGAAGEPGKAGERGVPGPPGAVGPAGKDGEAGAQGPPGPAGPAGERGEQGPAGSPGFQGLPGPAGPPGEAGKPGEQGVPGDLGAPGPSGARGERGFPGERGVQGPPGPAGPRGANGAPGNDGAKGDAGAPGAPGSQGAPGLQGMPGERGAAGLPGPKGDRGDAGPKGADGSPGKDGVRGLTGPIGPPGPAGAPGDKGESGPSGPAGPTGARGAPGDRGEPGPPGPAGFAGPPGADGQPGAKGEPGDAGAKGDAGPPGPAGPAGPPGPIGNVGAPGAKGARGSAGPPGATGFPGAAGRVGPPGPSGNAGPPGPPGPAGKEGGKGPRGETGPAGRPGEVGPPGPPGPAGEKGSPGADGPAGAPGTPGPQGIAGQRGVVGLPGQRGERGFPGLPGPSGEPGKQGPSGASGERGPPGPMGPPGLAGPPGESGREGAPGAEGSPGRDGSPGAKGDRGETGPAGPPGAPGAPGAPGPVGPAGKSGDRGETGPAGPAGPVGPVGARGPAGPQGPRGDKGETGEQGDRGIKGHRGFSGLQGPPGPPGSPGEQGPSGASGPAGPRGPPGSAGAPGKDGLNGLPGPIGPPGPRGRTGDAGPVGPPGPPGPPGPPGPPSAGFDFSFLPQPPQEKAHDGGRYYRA
Sequence of human collagen type I (human) (P08123 80-1119 limits assumed, chain 2 of 2, further chain): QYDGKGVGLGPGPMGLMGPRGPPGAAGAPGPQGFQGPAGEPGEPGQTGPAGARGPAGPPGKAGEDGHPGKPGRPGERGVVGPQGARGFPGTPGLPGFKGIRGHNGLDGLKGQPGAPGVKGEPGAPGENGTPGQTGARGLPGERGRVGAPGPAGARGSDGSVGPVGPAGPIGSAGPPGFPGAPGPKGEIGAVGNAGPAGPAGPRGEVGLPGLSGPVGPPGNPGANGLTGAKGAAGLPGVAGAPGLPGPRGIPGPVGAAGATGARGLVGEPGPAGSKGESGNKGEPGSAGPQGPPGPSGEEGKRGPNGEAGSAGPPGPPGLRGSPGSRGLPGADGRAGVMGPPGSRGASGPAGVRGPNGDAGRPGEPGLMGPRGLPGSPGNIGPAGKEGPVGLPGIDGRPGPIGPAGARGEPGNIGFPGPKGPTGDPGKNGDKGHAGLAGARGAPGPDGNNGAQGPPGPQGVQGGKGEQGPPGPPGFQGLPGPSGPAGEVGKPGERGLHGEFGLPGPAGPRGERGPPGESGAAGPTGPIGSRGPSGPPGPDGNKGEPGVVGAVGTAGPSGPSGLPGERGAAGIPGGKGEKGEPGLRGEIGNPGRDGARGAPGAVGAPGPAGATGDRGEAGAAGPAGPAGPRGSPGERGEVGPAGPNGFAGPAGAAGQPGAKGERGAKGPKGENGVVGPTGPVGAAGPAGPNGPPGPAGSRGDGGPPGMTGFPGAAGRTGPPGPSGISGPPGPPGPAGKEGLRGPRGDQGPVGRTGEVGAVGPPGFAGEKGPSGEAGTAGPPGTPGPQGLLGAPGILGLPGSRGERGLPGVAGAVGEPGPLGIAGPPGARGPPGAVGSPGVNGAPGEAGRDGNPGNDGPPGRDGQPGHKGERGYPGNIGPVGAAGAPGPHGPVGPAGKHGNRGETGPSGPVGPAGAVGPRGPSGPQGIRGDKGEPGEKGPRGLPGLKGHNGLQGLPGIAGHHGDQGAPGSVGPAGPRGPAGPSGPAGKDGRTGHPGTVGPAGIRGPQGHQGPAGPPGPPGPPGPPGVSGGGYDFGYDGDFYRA

% Collagen Binding, Dried Human [1] [%] | % Collagen Binding, Dried Rat [2] [%] | Dried Human Collagen Binding [1] [%] | Binder
38 | 48 |  | YHAC[dY]QAGCWIW (disulfide 4-9 (inferred)) [SEQ ID NO: 156]
 |  | 7 | PMICHAPYVGKCNFL (disulfide 4-12 (inferred)) [SEQ ID NO: 12]
2 | 3 |  | GQW[dT]CSGDEYTWHCNYE (disulfide 5-14 (inferred)) [SEQ ID NO: 166]
8 | 10 |  | YHACYQAGCW[dI]W (disulfide 4-9 (inferred)) [SEQ ID NO: 161]
0 | 0 |  | Y[dH]ACYQAGCWIW (disulfide 4-9 (inferred)) [SEQ ID NO: 153]
81 | 75 |  | DWTCS[dA]DEYTWHCNYE (disulfide 4-13 (inferred); not fully specified (C-terminus); printed as D W T C S a D E Y T W H C N Y E) [SEQ ID NO: 179]
89 | 86 |  | DWTCS[dY]DEYTWHCNYE (disulfide 4-13 (inferred); not fully specified (C-terminus); printed as D W T C S y D E Y T W H C N Y E) [SEQ ID NO: 182]
11 | 4 |  | GQWTCSG[dD]EYTWHCNYE (disulfide 5-14 (inferred); not fully specified (C-terminus)) [SEQ ID NO: 169]
49 | 35 |  | GQWTCSGD[dE]YTWHCNYE (disulfide 5-14 (inferred); not fully specified (C-terminus)) [SEQ ID NO: 170]
 | 6 |  | YHACYQAGCYIW (disulfide 4-9 (inferred)) [SEQ ID NO: 107]
73 | 63 |  | DWTCS[dL]DEYTWHCNYE (disulfide 4-13 (inferred); not fully specified (C-terminus); printed as D W T C S l D E Y T W H C N Y E) [SEQ ID NO: 183]
12 | 19 |  | YHACYQA[Sar]CWIW (disulfide 4-9 (inferred)) [SEQ ID NO: 104]
56 | 66 |  | YHACYQ[dA]GCWIW (disulfide 4-9 (inferred)) [SEQ ID NO: 158]
20 | 12 |  | YHACYQAGC[dW]IW (disulfide 4-9 (inferred)) [SEQ ID NO: 160]
3 | 2 |  | GQWTC[dS]GDEYTWHCNYE (disulfide 5-14 (inferred)) [SEQ ID NO: 168]
46 | 31 |  | G[dQ]WTCSGDEYTWHCNYE (disulfide 5-14 (inferred)) [SEQ ID NO: 164]

% Collagen Binding, Dried Human [1] [%] | % Collagen Binding, Dried Rat [2] [%] | Dried Human Collagen Binding [1] [%] | Binder
2 | 2 |  | GQWTCSGDEYTWHC[dN]YE (disulfide 5-14 (inferred); not fully specified (C-terminus)) [SEQ ID NO: 176]
 | 7 |  | YHACYQAGCWAW (disulfide 4-9 (inferred)) [SEQ ID NO: 137]
37 | 35 |  | YHACY[dQ]AGCWIW (disulfide 4-9 (inferred)) [SEQ ID NO: 157]
 | 6 |  | GQWTCSADEYTWHCNYE (disulfide 5-14 (inferred)) [SEQ ID NO: 142]
5 | 0 |  | GQWTCSGDEYTW[dH]CNYE (disulfide 5-14 (inferred); not fully specified (C-terminus)) [SEQ ID NO: 174]
5 | 4 |  | GQWTCSGDEYT[dW]HCNYE (disulfide 5-14 (inferred); not fully specified (C-terminus)) [SEQ ID NO: 173]
9 | 8 |  | GQWTCSGDEY[dT]WHCNYE (disulfide 5-14 (inferred); not fully specified (C-terminus)) [SEQ ID NO: 172]
2 | 4 |  | GQ[dW]TCSGDEYTWHCNYE (disulfide 5-14 (inferred)) [SEQ ID NO: 165]
13 | 6 |  | GQWTCSGDE[dY]TWHCNYE (disulfide 5-14 (inferred); not fully specified (C-terminus)) [SEQ ID NO: 171]
24 | 21 |  | YH[dA]CYQAGCWIW (disulfide 4-9 (inferred)) [SEQ ID NO: 154]
87 | 86 |  | DWTCS[dR]DEYTWHCNYE (disulfide 4-13 (inferred); not fully specified (C-terminus); printed as D W T C S r D E Y T W H C N Y E) [SEQ ID NO: 181]
9 | 23 |  | YHACYQ[NMeA]GCWIW (disulfide 4-9 (inferred)) [SEQ ID NO: 105]
30 | 27 |  | GQWTCSGDEYTWHCN[dY]E (disulfide 5-14 (inferred); not fully specified (C-terminus)) [SEQ ID NO: 177]
18 | 14 |  | YHACYQAGCWI[dW] (disulfide 4-9 (inferred)) [SEQ ID NO: 162]
81 | 72 |  | DWTCS[dS]DEYTWHCNYE (disulfide 4-13 (inferred); not fully specified (C-terminus); printed as D W T C S s D E Y T W H C N Y E) [SEQ ID NO: 180]
